In patent US20250339504A1 (published 2025):

Biological target: EPHB4 peptide on HLA-A*02:01 (human)
Assay: activation reporter or marker

B1: Clone 4, 7, 34 (Table 10) (TCR, V domains shown)
Valpha: GEQVEQRPPHLSVREGDSAFIICTYTDSATAYFYWYKQEPGAGLQLLMSVFSNVDRKEEQGLTVLLNKKDKRLSLNLTAAHPGDSAVYFCAVGNSNNRIFFGDGTQLVVKP
Vbeta: NTKITQSPRYLILGRANKSLECEQHLGHNAMYWYKQSAEKPPELMFLYNLKQLIRNETVPSRFIPECPDSSKLLLHISAVDPEDSAVYFCASSQLGSSAETLYFGSGTRLTVL
Q: Does B1 bind?
A: Result: recognises
